How the values were obtained:
Type in all cases: cell-based, human
[1] = system: SHP-1; assay: SHP-1 phosphorylation in primary patient AML blasts (Western blot)
Experimental: FIGS. 4A-4O show the collagen matrix is vital to LAIR-1 induced AML cell death. (FIGS. 4A-C). Flow cytometry quantification of primary live, dead, or apoptotic total blood leukocytes after ex vivo treatment with 10 μg/mL IgG isotype control (gray) or LAIR-1 mAb (red) in the presence (FIG. 4A) or absence (FIG. 4B) of exogenous collagen, or (FIG. 4C), CD451^Lo SSC^Lo blast cells in the presence of isotype control or LAIR-1 mAb. N=3 technical replicates. […] Each dot represents an individual donor. Red shading highlights surface expression >20000 arbitrary units. Blue shading highlights expression <20000 units. Line represents simple linear regression. […] N=4-7 donors. […] Mean pixel density from Western blotting normalized to isotype control condition and graphed relative to total SHP-1. N=3 technical replicates. […] FIGS. 4M and 4N) 4E-BP1 expression as measured by Lumit assay (FIG. 4M) or cleaved caspase-7 as measured by Western blot (FIG. 4N) of cells treated as shown in FIGS. 4I-4K. […] P values calculated by Student's t test. […]
For assessment of signaling in healthy cells, human monocytes were isolated from PBMCs from two donors using a StemCell monocyte isolation kit (StemCell, Vancouver, BC). […] Data were quantified using FIJI (NIH, MD).

[2] = system: SoC-resistant AML cells; assay: Ex vivo killing of VEN/AZA-treated AML patient leukemic cells; conditions: 5 μg/mL of antibody; fresh BM leukemic cells from a patient treated with VEN/AZA
Experimental: Ex vivo killing of VEN/AZA-treated AML patient leukemic cells (FIG. 7A) or T cells or NK cells (FIG. 7B). Values normalized to vehicle control. Lines represent linear regression of NC525 concentration versus normalized cell killing. […] FIGS. 7D and 7E show in vivo leukemic growth as measured by whole-body luminescence of MV4-11-luciferase cells (FIG. 7D) or survival (FIG. 7E) of CDX mice treated with 10 mg/kg isotype control (gray) or NC525 (red) or 100 mg/kg VEN (pink) or 0.5 mg/kg AZA (blue) or combination therapy (green or yellow, respectively). BLoD, below limit of detection. n=9 mice per group. P values determined by 2-way ANOVA or log-rank (Mantel-Cox) test, respectively. FIGS. 7F and 7G show leukemic growth in the blood (FIG. 7F) and in the spleen and BM (FIG. 7G) at week 8 after transplant of AML PDX mice treated with vehicle (gray), VEN/AZA (blue), NC525 (red), or VEN/AZA plus NC525 (green). n=5-10 mice per group. AML cells in spleen and BM compared from 4-5 mice per group. Data are shown as the mean±SEM. P values determined by 2-way ANOVA or 1-way ANOVA with multiple comparisons.

[3] = system: LAIR-1; assay: Ligand (collagen) mediated LAIR-1 signaling blockade in UT-140 reporter cells
Experimental: FIGS. 24A-24C display h11B3 LAIR-1 mAbs, containing a variable light chain of SEQ ID NO: 16 and a variable heavy chain of SEQ ID NO:27, binds LAIR-1 and blocks its functional signaling triggered by collagen-I in UT-140 reporter cells. Seed 1e4 UT140 reporter cells/100 μl in 96-well flat bottom plate. LAIR1 signaling was induced by 10 μg/ml coated collagen treatment. Blocking of LAIR1 signaling by such h11B3 LAIR-1 mAbs was determined by addition of different concentrations of such h11B3 LAIR-1 mAbs in 100 μL per well. Cultures were maintained for 20 hours, and the GFP was read on flow cytometry.
FIGS. 25A-25B display h11B3 LAIR-1 mAbs, containing a variable light chain of SEQ ID NO: 16 and a variable heavy chain of SEQ ID NO:27, blocks collagen-1 signaling. […] Reporter activation was quantified by flow cytometry. […]
For cell binding assays, 5e4 UT-140 cells or mouse LAIR-1-transfected 293T cells per well were plated in 200 μL PBS in a 96-well round bottom plate, centrifuged for 4 minutes at 500×g for a single wash, and blocked for 10 minutes on ice with flow cytometry buffer (PBS+2% FBS+0.1 mM EDTA) containing 1:50 dilution of TruStain™ Fc block (Biolegend, San Diego, CA). […] Cells were then washed 3 times as previously described and binding was measured by flow cytometry using an Attune NXT flow cytometer. […] GFP expression was measured by flow cytometry using an Attune NXT Flow Cytometer.

B1: LAIR-1 mAb: humanized agonist anti-LAIR-1 mAb, IgG1 backbone; h11B3 VL-2 (SEQ ID NO: 16), h11B3 VH-3 (SEQ ID NO: 27) (antibody, V domains shown)
VH: EVQLVESGGGLVQPGGSLKLSCAASGFTFNTNAMYWVRQAPGKGLEWVGRIRSKSSNYATYYAASVKGRFTISRDDSKNTLYLQMNSLKTEDTAVYYCVRGGSGFFAYWGQGTLVTVSS
VL: DIQMTQSPSSLSASLGDRVTITCKASEDIYIRLAWYQQKPGKAPRLLISTATSLETGVPSRFSGSGSGTDYTFTISSLQPEDIATYYCQQYWSTPYTFGGGTRLEIK
modifications: IgG1 constant regions; Synthetic: h11B3 VH-3; Synthetic: h11B3 VL-2
[1]; LAIR-1 mAb alone
  increase of SHP-1 phosphorylation relative to control: 25%
[1]; cotreatment with LAIR-1 mAb and collagen
  increase of SHP-1 phosphorylation relative to control: 50%
[2]
  killing of SoC-resistant AML cells: up to 70%
[3]
  collagen binding to LAIR-1: blocks collagen binding

— US20240352121A1, “LAIR-1 AGONISTIC ANTIBODIES AND METHODS OF USE THEREOF” (NEXTCURE, INC., priority 2023, published 2024)
